Measurements: ChEMBL document CHEMBL1212722, “Designer enzymes for glycosphingolipid synthesis by directed evolution” (Nat Chem Biol, 2009)

Assays:
[1] = substrate: CC(=O)N[C@H]1[C@H](O[C@@H]2[C@H](O[C@]3(C(=O)O)C[C@H](O)[C@@H](NC(C)=O)[C@H]([C@@H](O)[C@@H](O)CO)O3)[C@@H](O)[C@H](O[C@H]3[C@H](O)[C@@H](O)[C@@H](F)O[C@@H]3CO)O[C@@H]2CO)O[C@H](CO)[C@H](O)[C@@H]1O[C@@H]1O[C@H](CO)[C@H](O)[C@H](O)[C@H]1O; assay: (§1) Ratio of Kcat to Km of Activity of Rhodococcus sp. M777 Endoglycoceramidase 2 P394S mutant
[2] = substrate: CCCCCCCCCCCCC/C=C/[C@@H](O)[C@@H](N)CO; assay: as §1
[3] = substrate: CC(=O)N[C@H]1[C@H](O[C@@H]2[C@H](O[C@]3(C(=O)O)C[C@H](O)[C@@H](NC(C)=O)[C@H]([C@@H](O)[C@@H](O)CO)O3)[C@@H](O)[C@H](O[C@H]3[C@H](O)[C@@H](O)[C@@H](F)O[C@@H]3CO)O[C@@H]2CO)O[C@H](CO)[C@H](O)[C@@H]1O[C@@H]1O[C@H](CO)[C@H](O)[C@H](O)[C@H]1O; assay: (§2) Activity of Rhodococcus sp. M777 Endoglycoceramidase 2 P394S mutant
[4] = substrate: CCCCCCCCCCCCC/C=C/[C@@H](O)[C@@H](N)CO; assay: as §2
[5] = substrate: CC(=O)N[C@H]1[C@H](O[C@@H]2[C@H](O[C@]3(C(=O)O)C[C@H](O)[C@@H](NC(C)=O)[C@H]([C@@H](O)[C@@H](O)CO)O3)[C@@H](O)[C@H](O[C@H]3[C@H](O)[C@@H](O)[C@@H](F)O[C@@H]3CO)O[C@@H]2CO)O[C@H](CO)[C@H](O)[C@@H]1O[C@@H]1O[C@H](CO)[C@H](O)[C@H](O)[C@H]1O; assay: (§3) Ratio of Kcat to Km of Activity of Rhodococcus sp. M777 Endoglycoceramidase 2 D314Y mutant
[6] = substrate: CCCCCCCCCCCCC/C=C/[C@@H](O)[C@@H](N)CO; assay: as §3
[7] = substrate: CC(=O)N[C@H]1[C@H](O[C@@H]2[C@H](O[C@]3(C(=O)O)C[C@H](O)[C@@H](NC(C)=O)[C@H]([C@@H](O)[C@@H](O)CO)O3)[C@@H](O)[C@H](O[C@H]3[C@H](O)[C@@H](O)[C@@H](F)O[C@@H]3CO)O[C@@H]2CO)O[C@H](CO)[C@H](O)[C@@H]1O[C@@H]1O[C@H](CO)[C@H](O)[C@H](O)[C@H]1O; assay: (§4) Activity of Rhodococcus sp. M777 Endoglycoceramidase 2 D314Y mutant
[8] = substrate: CCCCCCCCCCCCC/C=C/[C@@H](O)[C@@H](N)CO; assay: as §4
[9] = substrate: CC(=O)N[C@H]1[C@H](O[C@@H]2[C@H](O[C@]3(C(=O)O)C[C@H](O)[C@@H](NC(C)=O)[C@H]([C@@H](O)[C@@H](O)CO)O3)[C@@H](O)[C@H](O[C@H]3[C@H](O)[C@@H](O)[C@@H](F)O[C@@H]3CO)O[C@@H]2CO)O[C@H](CO)[C@H](O)[C@@H]1O[C@@H]1O[C@H](CO)[C@H](O)[C@H](O)[C@H]1O; assay: (§5) Activity of Rhodococcus sp. M777 Endoglycoceramidase 2 N334S mutant
[10] = substrate: CCCCCCCCCCCCC/C=C/[C@@H](O)[C@@H](N)CO; assay: as §5
[11] = substrate: CC(=O)N[C@H]1[C@H](O[C@@H]2[C@H](O[C@]3(C(=O)O)C[C@H](O)[C@@H](NC(C)=O)[C@H]([C@@H](O)[C@@H](O)CO)O3)[C@@H](O)[C@H](O[C@H]3[C@H](O)[C@@H](O)[C@@H](F)O[C@@H]3CO)O[C@@H]2CO)O[C@H](CO)[C@H](O)[C@@H]1O[C@@H]1O[C@H](CO)[C@H](O)[C@H](O)[C@H]1O; assay: (§6) Ratio of Kcat to Km of Activity of Rhodococcus sp. M777 Endoglycoceramidase 2 N334S mutant
[12] = substrate: CCCCCCCCCCCCC/C=C/[C@@H](O)[C@@H](N)CO; assay: as §6
[13] = substrate: CC(=O)N[C@H]1[C@H](O[C@@H]2[C@H](O[C@]3(C(=O)O)C[C@H](O)[C@@H](NC(C)=O)[C@H]([C@@H](O)[C@@H](O)CO)O3)[C@@H](O)[C@H](O[C@H]3[C@H](O)[C@@H](O)[C@@H](F)O[C@@H]3CO)O[C@@H]2CO)O[C@H](CO)[C@H](O)[C@@H]1O[C@@H]1O[C@H](CO)[C@H](O)[C@H](O)[C@H]1O; assay: (§7) Ratio of Kcat to Km of Activity of Rhodococcus sp. M777 Endoglycoceramidase 2 G370E mutant
[14] = substrate: CCCCCCCCCCCCC/C=C/[C@@H](O)[C@@H](N)CO; assay: as §7
[15] = substrate: CC(=O)N[C@H]1[C@H](O[C@@H]2[C@H](O[C@]3(C(=O)O)C[C@H](O)[C@@H](NC(C)=O)[C@H]([C@@H](O)[C@@H](O)CO)O3)[C@@H](O)[C@H](O[C@H]3[C@H](O)[C@@H](O)[C@@H](F)O[C@@H]3CO)O[C@@H]2CO)O[C@H](CO)[C@H](O)[C@@H]1O[C@@H]1O[C@H](CO)[C@H](O)[C@H](O)[C@H]1O; assay: (§8) Activity of Rhodococcus sp. M777 Endoglycoceramidase 2 G370E mutant
[16] = substrate: CCCCCCCCCCCCC/C=C/[C@@H](O)[C@@H](N)CO; assay: as §8

B1: Endoglycoceramidase II (Rhodococcus sp), A0ACD6B832 P394S (protein)
chain: MRRTRLVSLIVTGSLVFGGGVAAAQSSLAASGSGSGSGTALTPSYLKDDDGRSLILRGFNTASSAKSAPDGMPQFTEADLAREYADMGTNFVRFLISWRSVEPAPGVYDQQYLDRVEDRVGWYAERGYKVMLDMHQDVYSGAITPEGNSGNGAGAIGNGAPAWATYMDGLPVEPQPRWELYYIQPGVMRAFDNFWNTTGKHPELVEHYAKAWRAVADRFADNDAVVAYDLMNEPFGGSLQGPAFEAGPLAAMYQRTTDAIRQVDQDTWVCVAPQAIGVNQGLPSGLTKIDDPRAGQQRIAYCPHLYPLPLDIGDGHEGLARTLTDVTIDAWRANTAHTARVLGDVPIILGEFGLDTTLPGARDYIERVYGTAREMGAGVSYWSSDPGPWGPYLSDGTQTLLVDTLNKPYPRAVAGTPTEWSSTSDRLQLTIEPDAAITAPTEIYLPEAGFPGDVHVEGADVVGWDRQSRLLTVRTPADSGNVTVTVTPAA
kcat/Km [1]: 319 M⁻¹ s⁻¹ | kcat/Km [2]: 660 M⁻¹ s⁻¹ | Km [3]: 690 µM | kcat [3]: 0.22 s⁻¹ | Km [4]: 500 µM | kcat [4]: 0.33 s⁻¹

B2: Endoglycoceramidase II (Rhodococcus sp), A0ACD6B832 D314Y (protein)
chain: MRRTRLVSLIVTGSLVFGGGVAAAQSSLAASGSGSGSGTALTPSYLKDDDGRSLILRGFNTASSAKSAPDGMPQFTEADLAREYADMGTNFVRFLISWRSVEPAPGVYDQQYLDRVEDRVGWYAERGYKVMLDMHQDVYSGAITPEGNSGNGAGAIGNGAPAWATYMDGLPVEPQPRWELYYIQPGVMRAFDNFWNTTGKHPELVEHYAKAWRAVADRFADNDAVVAYDLMNEPFGGSLQGPAFEAGPLAAMYQRTTDAIRQVDQDTWVCVAPQAIGVNQGLPSGLTKIDDPRAGQQRIAYCPHLYPLPLDIGYGHEGLARTLTDVTIDAWRANTAHTARVLGDVPIILGEFGLDTTLPGARDYIERVYGTAREMGAGVSYWSSDPGPWGPYLPDGTQTLLVDTLNKPYPRAVAGTPTEWSSTSDRLQLTIEPDAAITAPTEIYLPEAGFPGDVHVEGADVVGWDRQSRLLTVRTPADSGNVTVTVTPAA
kcat/Km [5]: 845 M⁻¹ s⁻¹ | kcat/Km [6]: 443 M⁻¹ s⁻¹ | Km [7]: 580 µM | kcat [7]: 0.49 s⁻¹ | Km [8]: 1600 µM | kcat [8]: 0.7 s⁻¹

B3: Endoglycoceramidase II (Rhodococcus sp), A0ACD6B832 N334S (protein)
chain: MRRTRLVSLIVTGSLVFGGGVAAAQSSLAASGSGSGSGTALTPSYLKDDDGRSLILRGFNTASSAKSAPDGMPQFTEADLAREYADMGTNFVRFLISWRSVEPAPGVYDQQYLDRVEDRVGWYAERGYKVMLDMHQDVYSGAITPEGNSGNGAGAIGNGAPAWATYMDGLPVEPQPRWELYYIQPGVMRAFDNFWNTTGKHPELVEHYAKAWRAVADRFADNDAVVAYDLMNEPFGGSLQGPAFEAGPLAAMYQRTTDAIRQVDQDTWVCVAPQAIGVNQGLPSGLTKIDDPRAGQQRIAYCPHLYPLPLDIGDGHEGLARTLTDVTIDAWRASTAHTARVLGDVPIILGEFGLDTTLPGARDYIERVYGTAREMGAGVSYWSSDPGPWGPYLPDGTQTLLVDTLNKPYPRAVAGTPTEWSSTSDRLQLTIEPDAAITAPTEIYLPEAGFPGDVHVEGADVVGWDRQSRLLTVRTPADSGNVTVTVTPAA
Km [9]: 700 µM | kcat [9]: 0.13 s⁻¹ | Km [10]: 680 µM | kcat [10]: 0.19 s⁻¹ | kcat/Km [11]: 186 M⁻¹ s⁻¹ | kcat/Km [12]: 279 M⁻¹ s⁻¹

B4: Endoglycoceramidase II (Rhodococcus sp), A0ACD6B832 G370E (protein)
chain: MRRTRLVSLIVTGSLVFGGGVAAAQSSLAASGSGSGSGTALTPSYLKDDDGRSLILRGFNTASSAKSAPDGMPQFTEADLAREYADMGTNFVRFLISWRSVEPAPGVYDQQYLDRVEDRVGWYAERGYKVMLDMHQDVYSGAITPEGNSGNGAGAIGNGAPAWATYMDGLPVEPQPRWELYYIQPGVMRAFDNFWNTTGKHPELVEHYAKAWRAVADRFADNDAVVAYDLMNEPFGGSLQGPAFEAGPLAAMYQRTTDAIRQVDQDTWVCVAPQAIGVNQGLPSGLTKIDDPRAGQQRIAYCPHLYPLPLDIGDGHEGLARTLTDVTIDAWRANTAHTARVLGDVPIILGEFGLDTTLPGARDYIERVYETAREMGAGVSYWSSDPGPWGPYLPDGTQTLLVDTLNKPYPRAVAGTPTEWSSTSDRLQLTIEPDAAITAPTEIYLPEAGFPGDVHVEGADVVGWDRQSRLLTVRTPADSGNVTVTVTPAA
kcat/Km [13]: 247 M⁻¹ s⁻¹ | kcat/Km [14]: 418 M⁻¹ s⁻¹ | Km [15]: 850 µM | kcat [15]: 0.21 s⁻¹ | Km [16]: 670 µM | kcat [16]: 0.28 s⁻¹
